Measurements taken from the DeepSol protein solubility set.

assay: soluble on expression in E. coli; label from the status in PepcDB or PDB records

| Sequence | soluble on expression in E. coli |
| --- | --- |
| MGSDKIHHHHHHMVILLNPNILESSFIPERLRARDSEISKIMEVVIKPALNNITTNLIIYGDSGTGKTVTMRFLAREVRNPKIFYINAISYRSVKNVLVELLSHEGVIISERASYANIYTRLEKAIEKYDKTVILVIDEAANILRTDEEGLYYLFRSKDSFDVNISAIFIAMDDPALLLNQRIKRSYGLFNELKFKRYSKDEILEIVRDRARMSLNTTSYDDTIIDYIAEISSEFGSARVAIDILAKAAHIAEYRRSENISYDDVRAAKSMISPYVTESKLASLDKYELAALLAICGCLSHSVSTDIACVSEQLKILREQYSLDPEMDIYEILRKLEGLGIINSYVESSGKSSGVRKKISIHDVPVSVLAEKIGNLLNGMA | not soluble |
| MGSDKIHHHHHHMVKLKDGFTGERALVLPRIIVDKMEEDPLTSMLHITDIGYYPKAKHHFRERKEPINQYVFIYCIDGAGSYRIGDQEYTVSANQYFILPAGVPHSYASNKSTPWTIYWIHFKGILAPFYAKDANRPMDIQSEQHSRISTRINLFEEIFNTLKNGYSNENLRYAFSMFHFYLGTLRYVQQYRNAGTNEAEDEGIVNVAIHYMKENMEKHLSLEEISTQIGYSPSHFSMLFKKQTGHSPLTYFNLLKMQQACLLLDTTDMKINQICYKIGIEDTYYFSRLFSKIMGMSPREYRKSKKG | not soluble |
| MGSDKIHHHHHHMVKLPPLSLYIHIPWCVQKCPYCDFNSHALKGEVPHDDYVQHLLNDLDNDVAYAQGREVKTIFIGGGTPSLLSGPAMQTLLDGVRARLPLAADAEITMEANPGTVEADRFVDYQRAGVNRISIGVQSFSEEKLKRLGRIHGPQEAKRAAKLASGLGLRSFNLDLMHGLPDQSLEEALGDLRQAIELNPPHLSWYQLTIEPNTLFGSRPPVLPDDDALWDIFEQGHQLLTAAGYQQYETSAYAKPGYQCQHNLNYWRFGDYIGIGCGAHGKVTFPDGRILRTTKTRHPRGFMQGRYLESQRDVEATDKPFEFFMNRFRLLEAAPRVEFIAYTGLCEDVIRPQLDEAIAQGYLTECADYWQITEHGKLFLNSLLELFLAE | not soluble |
| MGSDKIHHHHHHMVKLYKEIINLIDNHQATMVEQLHQFCEINSGTTNLTGLAIMAETLCSAFKPIADTTELITLPPLSVIDMTGNTVMQSCGDVLFISKRPHLKRRILLSGHMDTVYSASNPFQKLSYLDANQINGPGVADMKGGLIVILHALAAFENTRFAEDMGWDVLINSDEEIGSPTSGSLFNKLAHRYQAALVYEPAMTPNGTLAKNRKGSGKLTLVATGRAAHAGRAFDEGRNAICYLAEAITAVHALNGQKNGVTINVGKIAGGEALNVVPDKAVAQLDIRISLPEDEIWVRNELNKIIKQLERPDYSLNVHGTFGRPVKRICAGTERLFHRIQKIGEALGLTIDWKDSGGCCDGNNLAHYGLPVLDTLGVRGGNIHSSDEYILLDSLSERAALSALLLIDLAQGGLEDLIK | not soluble |
| MGSDKIHHHHHHMVKMRALLSGYYGKGNGGDEALLATLLQMLPSHVTPVVLSGNPEETRDRYNVETYDRMAPLAVLQALRSSDALIWGGGSIIQDVTSTISPFYYGGMMALAQKMGLKTVAWAQGIGPLVRPQTRWLARQTFGNCTKVSVRDRASAALLSDWQIPCIIAPDPVWALESKPVPGLWDLPAPRVAVTLRSHPQLTETRLANLTRALVDFQKATQAFILLLPFQKSEDLSIAEAIQPHLKDVSQILCLEDPQLLKGVFRGVEMAIGMRLHSLIMAAAEGCRCFALSYDPKVNRLMEDLEMPGWDLASLPNDPNLISLTWMEHYANGDPLSPDQIQSLVDRALIHRELLSQAFI | not soluble |
| MGSDKIHHHHHHMVLMPSPETIFIESGPLSARFRSDWGGRMTHLVHAEMGDILAPTQADVFEPYNWPRAGAYPLVPYHNRVYGASFVESGKTHRLLPHPALTPDAMHGPAHRRPWHVASAAEDRVTLQLNYEADDEWPFSFVAEQHFRLEPDRLIVELSIINSSDASAPVSLGWHPYLAVPLSSHAETDARLEYPLDALNVPTGNEAHPRSSRSIPAATGYTLHFRYWSTATVELDKGTLLLEADPIFEYLAVHRMEKYLCLEPVSMAAGALCLPETERESRGLRTILPEGRLSGRISLSIRG | not soluble |
| MGSDKIHHHHHHMVLRNSEGTHVHAADADQRPRAICLSTMTTNMQIVTLFRDAPDFAEPGNFEAHLVRLWSVIEALSGKDDRLGQWYLTGSTEEEALLYPAFEASGAPSTALLAVLKTKYQGKRNRAKVVGLWNGHNNPTDGATLKLSIDTGPLPSEVAIDPPKPRDAETGLAPLAAIQGIVSLLVATYAPAVVSVAPMDYFEKKVFDDKPGVGWMLYLPKVITQQQVPEARALIPVPAKGKQTGTIIVSVTDAPFSVDNPEHVAIANRIEIRLVDQDLLPAYVDI | not soluble |
| MGSDKIHHHHHHMVLRYTALGDSLTTGRGSGLFSPGFVQRFGDMMEADLKTRTAINIFARSGLNTEEILGLLSYPYVQKCIRDADMITITGCGNDLIDSVLAYQTSKDETIFSRVSAHCHENFEKMIAKVAEIKGENPSPYAIRVFNLYNPFPEIDIAGKWITSFNSHLETLASAPHVKIADAYSIFKGKEQEYLSFDGVHPNSKGYQAMAEAVHKLGYKELSVS | not soluble |
| MGSDKIHHHHHHMVQDRKSTVVITGASSGVGLYAAKALAERGWYVVMACRDVAKAQLAAQSVGIPHQGSYTIMHIDLGSLDSVRQFVKNFRASGHSLDALVCNAAIYMPLIKEPLRSPEGYELTVTTNHLGHFLLCNLMLEDLKKSSSEPRLVILGTVTHNPDELGGKIPPRPDLGDLQGFAEGFKEPISMIDGKKFEPVKAYKDSKVCNVLTMRELHQRYHESTGIVFNSLYPGCVAETPLFRNHYPLFQKIFPLFQKYITKGYVSQELAGERVAAVVADPEYNQSGVYWSWGNRQKEDGKSFVQKVSPQARDDDKGDRLWQLSAKLVGLA | not soluble |
| MGSDKIHHHHHHMVQVDNTFYDGSAYDPETVRFFDVAQEGAQVRQIGGLVAQGALSAFEGLRPRSVVVMLDGQIHRSCVRLVETLHSPMRQPLVITSTLPHYIGALDVLIVITDNGADEKALKALITASQRGVATLLIGPSSGPLIDESPQDTFVLPTLPTAAGLSPARIVASISTLLDLLEADPSIISDRLEHLADCIDEEVESLSPERDELVNPGRKLRAYVDHARIVHTGRTDVGLAIANVIAPIWTRRGLVSAVLDFPELMESLPELRGPEPITDDIFHDPFIDDEPGVVPFRAVVWAEEEPGIPDAMAQSCDGPSKGALTQALRLLVRGQSATTYSIEEKDL | not soluble |
| MGSDKIHHHHHHMVRPRIKLTEHLSTEEIEQSYRRCEDAQEKTRWLVIKLLNQQPQLSAQKVAEIVGFSGDWVRKIVRRYNKLGANGIINQQKLKPGGKKLALTNEQQQWLRQRLASPPEDGGLWSAPKVGELIRVQFGITLHVTTAWDYLKRLGFSLQQPRPLHTEAATFVQRQMFKTELTEFVRLLRFLHPHKSVEVWAEDEARLGLKPIVRRVWTPVGHRPNAVHRTRYQWLYTYGFVHPATGESFFLILPRVNIAVMQMALDAFAAEVNPHHHKIIVLLVDQAGWHTSKQLMLPAGIILFPLPAYTPQLQPTECVWSLLREAVANQMFSTLDELETVLISRCQWLMSHPQIVHGKVGFDWICQI | not soluble |
| MGSDKIHHHHHHMVSCGGDGTLNEVVNGIVNTDLAIAVLPMGTGSDFGKTIGIRNISDFLKAIKSGRTREVDLVAAQFANQSRRYFINILEIGFGAEVMNYVNSHKYLGRGSFKFGAFYMLSKMHPFNLRLIMDGKEYEFPTIEAIFANGRYFGGGMLASPYSEIDDGLLDVHVLKPFSRIRSAMNFRTIYDGSYLNRRICA | not soluble |
| MGSDKIHHHHHHMVSRYLEHLEHTFSTRLFQRNTRKISLTPAGEKALLYCENILQQQQLLQELAAPEQHNGTIRFTCGLFLFELGVAECIRQFKRQHPHIQFDVYLTESTMDLIDAQVDLALRITQKVADGLIARPVCQIESVFCAHPDYLKQHSPLLHPRQLIQHECIAHHSQHQFWTLFDNEQQPQNYPLNVTFKSNDVNALYDMCLHAQGVAMLPTLLVEKDLKEKRLKALFKNFTAPELSLSVVYASRQHLPRITQEFIAFMIENLDFYLKPQN | not soluble |
| MGSDKIHHHHHHMVTLEPENKVRKILITDCADAKGLIAKITGVCFAHQLNIIKNTEFVDRIQGRFFMRTVLEGVFDDASLLKALSEVLPAQNHTKLVAADKKRIVVMVTKEAHCLGDLLMKAYYGGLDVDIAAVVGNYDSLRNLTEKFDIPFHHVCHQGLDRLEHEQAILKIVNGYQPDYVVLAKYMRVLTPEFVCAYPDRIINIHHSFLPAFIGASPYKQAWERGVKIIGATAHFVNDCLDEGPIIKQDVISVDHTFSAEEMAHNGRDVEKSVLSKALQLVLNEQVIVYGNKTVVF | not soluble |
| MGSDKIHHHHHHMVTYVIQGILKEEEDRMVRRSFLIKGNEIAYVNGRLDKLTFIRMNGDQFCMAPGRVMNNDELETNLSISSFKKTLTSMIEKGCTSVVYFASANYERQLPFVIKQAYHRMNNSFIDYVIGLSLPAHLLRPSVLRFCKKEKIPVLRFSLQSIDDLYDVPWSRLQDVLYSYPIVLLPNMNELLEGERKLAEDLWVSLCEAHRIYGTTHPPNSLEAWPKTLLKLVGLYPKKGELRVGGDADYLLYYVARTNATLAETCDLDYDRDKPNVVVLRGSVLKANEVTSIRPGGGRRIRITRPGQFIPVSEASHWGM | not soluble |
| MGSDKIHHHHHHMVYVGTSGFSFEDWKGVVYPEHLKPSQFLKYYWAVLGFRIVELNFTYYTQPSWRSFVQMLRKTPPDFYFTVKTPGSVTHVLWKEGKDPKEDMENFTRQIEPLIEEQRLKMTLAQFPFSFKFSRKNVEYLEKLRESYPYELAVEFRHYSWDREETYEFLRNHGITFVVVDEPKLPGLFPYRPITTTDYAYFRFHGRNERWFEAEGEERYDYLYSEEELKTLFEDVVELSRRVKETYVFFNNCYKGQAAINALQFKKMLEERV | soluble |
| MGSDKIHHHHHHMWFRNLLVYRLTQDLQLDADSLEKALGEKSARPCASQELTTYGFTAPFGKGPDAPLVHVSQDFFLISARKEERILPGSVVRDALKEKVDEIEAQQMRKVYKKERDQLKDEIVQTLLPRAFIRRSSTFAAIAPSLGLILVDSASAKKAEDLLSTLREALGSLPVRPLSVKVAPTATLTDWVKTQEAAGDFHVLDECELRDTHEDGGVVRCKRQDLTSEEIQLHLTAGKLVTQLSLAWSDKLSFVLDDKLAVKRLRFEDLLQEQAEKDGGEDALGQLDASFTLMMLTFAEFLPALFEALGGEEIPQGV | not soluble |
| MGSDKIHHHHHHMYCMEKCVENYFVLNEEIKDKKTFDGNFVENGKSLYEVIRIIDGIPLFLGNHIKRLENSFKIEKLSFPVSLDNIKQNIFKLIEANKCEVGNVKLVFNYFENKCDFYGYFVQHKYPDEYDYINGVKTILYHGERSNPNAKVINLNFRKNVDKKIKEKGVFEAILVDRNGNITEGSKSNIFMVKSNTVYTAPVEDVLPGITREIIVEICKQCGYTVVDEKINYKKIDQFEGLFISGTSPKVLPICQVDDIKFNSQGTEMIRNIRKAYDDYISNYIKNFDSRS | not soluble |
| MGSDKIHHHHHHMYEENIYIKNSEYEFDNNLKQLASYLNIPVSIVRPYKEDLTLYQYKKGQVIYHSTDQIKFVYFLVNGCILHESSNITGDNYLRLSKDENIFPMNFIFNETPAPYEICTALTDCKILTLPKDLLEYLCRKHNEIFESLFKKLNETIQFQVEYIMALRANSAKERIERILQILCLSIGDDNGEFYELKQIMTVQLISNLSGLNRKTTGEIIRELKTENIIYQDKRNWIIKK | not soluble |
| MGSDKIHHHHHHMYELYFNWKFIWKKVGLASLTTNSTTYHSEPAYRVNLLAISSKEADFFFKMRDTLTSVMTEKLEPRYFRKGAEEGKRYTVDEARFSFRNGMCYVNQKRVRKDGSITETEQSDNRCIYDMLTILAQARSFDPKEYTIGQRIQFPMATGRRVEEQTLIYRGIKKITAENDTTYRCLIFSLVEYNKKGKEKEVITFYVTDDRNHLPVRLDMHLNFGSAKAFLKSVSGYRHPQTSIVTK | not soluble |
